From the RNAGym collection of RNA variant scans (doi:10.7554/elife.90254)

B1: LINE1-mini (parent)
chain: GGCAGAGCUCAACACAGCGUGGCAAAGUGGCUGUGGCUAGACUGCC

Variants of: B1
Test: self-cleavage, relative activity (ratio to wild type); higher = more cleavage; in vitro, sequencing; the parent is a self-cleaving ribozyme

Row | Variant | self-cleavage
1 | G36A C46U | 0.26
2 | C3A A25C | 0.41
3 | G22A C45G | 0.32
4 | A26U G40C | 0.06
5 | G5U A39C | 0.06
6 | U28G U38C | 1.1
7 | A16G U32C | 0.26
8 | A6G C8U | 0.22
9 | A25U G29A | 0.79
10 | G35C G36C | 0.03
11 | C15G G22A | 0.15
12 | C8G C45A | 0.08
13 | A16C U43A | 0.04
14 | A11U U43G | 0
15 | G7C U38C | 0.1
16 | C3A C46U | 0.41
17 | G30C U34C | 0.12
18 | C45G C46A | 0.21
19 | G29U A39G | 0.06
20 | G44U C46A | 0.08
21 | C15A U32A | 0.06
22 | G5A U28A | 0.12
23 | G2C C10A | 0.03
24 | A12C G36A | 0.2

Row | Variant | self-cleavage
25 | A4G C13A | 0.27
26 | G17C C37G | 0.04
27 | C31A G35U | 0.06
28 | A11U G30A | 0.17
29 | C13A G44C | 0.07
30 | U9A U32A | 0.11
31 | C37U G44U | 0.25
32 | C23U A39U | 0.89
33 | G17A A39G | 0.06
34 | G7A A39U | 0.25
35 | C37G A41C | 0.02
36 | A4U G21U | 0.35
37 | A11G C42A | 0.02
38 | A11G G19C | 0.03
39 | A16C G30U | 0.05
40 | G29C C45U | 0.67
41 | G30C U32A | 0.26
42 | C13U C31A | 0.05
43 | G19A G21U | 0.72
44 | G27C U32C | 0.12
45 | A12U U20A | 0.12
46 | A25U U43C | 0.1
47 | A12G G44C | 0.03
48 | A24C U28A | 0.6

Row | Variant | self-cleavage
49 | C18U A24G | 1.01
50 | G7C C23U | 0.1
51 | A11U G30C | 0.13
52 | G27A U28A | 0.77
53 | C18G G29A | 1.38
54 | C18G A25C | 0.2
55 | U20G U32G | 0.09
56 | G27A G33A | 0.1
57 | G5U | 0.14
58 | C3A G36A | 1.1
59 | C10U A26U | 0.31
60 | A6C A16C | 0.1
61 | C18A U32G | 0.04
62 | C3G G36A | 0.74
63 | A11U A16U | 0.03
64 | G40A C46A | 0.14
65 | G7U G33A | 0.13
66 | G19C G22A | 0.39
67 | C3A C37G | 0.28
68 | C31A U38C | 0.16
69 | G33U A41G | 0.07
70 | C3G U20A | 0.35
71 | G7A C23U | 0.11
72 | C46G | 0.99

Row | Variant | self-cleavage
73 | G5C C18A | 0.05
74 | A16U A41U | 0.07
75 | A4G U34C | 0.12
76 | G44U C46U | 0.12
77 | C3G C10G | 0.04
78 | G35A C45A | 0.13
79 | C13G U32G | 0.05
80 | C3A A16U | 0.13
81 | U20G G40A | 0.06
82 | G2U C46A | 0.09
83 | A39U G44C | 0.09
84 | A12U C15G | 0.06
85 | A11G G22U | 0.05
86 | G19U C23G | 0.7
87 | G1U U28A | 0.15
88 | G1A A25U | 1.09
89 | G19C G27C | 0.61
90 | U32A A39U | 0.06
91 | A4U G7A | 0.31
92 | C8G A24U | 0.3
93 | C3U A12C | 0.06
94 | G7C G27C | 0.06
95 | G2C A14U | 0.08
96 | C3G A6G | 0.08

Row | Variant | self-cleavage
97 | A14G U34A | 0.16
98 | G17A G44C | 0.05
99 | A12C C37G | 0.02
100 | C18U | 1.21
101 | G2U A11U | 0.03
102 | A4G A39C | 0.06
103 | A16C G35A | 0.06
104 | C15U A25G | 0.17
105 | C8A C46G | 0.33
106 | C3U A12U | 0.35
107 | U34A | 0.1
108 | G19C G30C | 1
109 | C18G C37G | 0.06
110 | C13A A16G | 0.03
111 | G40U U43C | 0.15
112 | C8A C18G | 0.15
113 | C15U A26G | 0.88
114 | A11C G19A | 0.05
115 | A11G G29U | 0.03
116 | U20C G33A | 0.1
117 | G1A C15A | 0.06
118 | A4G C37U | 0.13
119 | A11C U20C | 0.02
120 | C23U C45U | 1.09

Row | Variant | self-cleavage
121 | U20A C42G | 0.04
122 | G30A G35A | 0.12
123 | U20C C37U | 0.06
124 | C3G A26C | 0.37
125 | A12U A41U | 0.18
126 | C18U G29U | 1.87
127 | G19C U38A | 0.05
128 | A6G A16U | 0.06
129 | G7A U28A | 0.16
130 | C13G G30A | 0.15
131 | A6G G44C | 0.14
132 | A14C U32C | 0.08
133 | C18A A25C | 0.36
134 | U9C U20A | 0.04
135 | C15A A24G | 0.07
136 | G17U A26U | 0.04
137 | U34C A41G | 0.07
138 | C37U C42G | 0.03
139 | U9C A41G | 0.05
140 | U20A C23A | 1.15
141 | G35U C42U | 0.11
142 | A4G C10A | 0.06
143 | C18G U28A | 0.39
144 | A41U C42U | 0.09

Row | Variant | self-cleavage
145 | G2U C13A | 0.06
146 | G1A | 1.11
147 | A16C U20C | 0.19
148 | G2A G33A | 0.2
149 | G5U U28A | 0.06
150 | G5U U28C | 0.09
151 | G22C U38A | 0.31
152 | C23A U34A | 0.24
153 | C13A G44U | 0.12
154 | G30C U38A | 0.75
155 | A4G A25C | 0.78
156 | A11C G40C | 0.04
157 | C18U A24C | 0.39
158 | C13G U43G | 0.66
159 | G17C G21A | 1.72
160 | G5C C42G | 0.46
161 | G22U C37U | 0.05
162 | C3A C42U | 0.26
163 | A26G G44A | 0.31
164 | G27A U43G | 0.05
165 | U9A C23A | 0.14
166 | G2A U38A | 0.71
167 | A14G A25C | 0.18
